The numbers were not newly measured in article PMC11449392, which cites them from elsewhere.

The target in this series is Abl PRM (Homo sapiens) (UniProt P00519).
UniProt P00519, sequence (P00519 whole entry, looked up): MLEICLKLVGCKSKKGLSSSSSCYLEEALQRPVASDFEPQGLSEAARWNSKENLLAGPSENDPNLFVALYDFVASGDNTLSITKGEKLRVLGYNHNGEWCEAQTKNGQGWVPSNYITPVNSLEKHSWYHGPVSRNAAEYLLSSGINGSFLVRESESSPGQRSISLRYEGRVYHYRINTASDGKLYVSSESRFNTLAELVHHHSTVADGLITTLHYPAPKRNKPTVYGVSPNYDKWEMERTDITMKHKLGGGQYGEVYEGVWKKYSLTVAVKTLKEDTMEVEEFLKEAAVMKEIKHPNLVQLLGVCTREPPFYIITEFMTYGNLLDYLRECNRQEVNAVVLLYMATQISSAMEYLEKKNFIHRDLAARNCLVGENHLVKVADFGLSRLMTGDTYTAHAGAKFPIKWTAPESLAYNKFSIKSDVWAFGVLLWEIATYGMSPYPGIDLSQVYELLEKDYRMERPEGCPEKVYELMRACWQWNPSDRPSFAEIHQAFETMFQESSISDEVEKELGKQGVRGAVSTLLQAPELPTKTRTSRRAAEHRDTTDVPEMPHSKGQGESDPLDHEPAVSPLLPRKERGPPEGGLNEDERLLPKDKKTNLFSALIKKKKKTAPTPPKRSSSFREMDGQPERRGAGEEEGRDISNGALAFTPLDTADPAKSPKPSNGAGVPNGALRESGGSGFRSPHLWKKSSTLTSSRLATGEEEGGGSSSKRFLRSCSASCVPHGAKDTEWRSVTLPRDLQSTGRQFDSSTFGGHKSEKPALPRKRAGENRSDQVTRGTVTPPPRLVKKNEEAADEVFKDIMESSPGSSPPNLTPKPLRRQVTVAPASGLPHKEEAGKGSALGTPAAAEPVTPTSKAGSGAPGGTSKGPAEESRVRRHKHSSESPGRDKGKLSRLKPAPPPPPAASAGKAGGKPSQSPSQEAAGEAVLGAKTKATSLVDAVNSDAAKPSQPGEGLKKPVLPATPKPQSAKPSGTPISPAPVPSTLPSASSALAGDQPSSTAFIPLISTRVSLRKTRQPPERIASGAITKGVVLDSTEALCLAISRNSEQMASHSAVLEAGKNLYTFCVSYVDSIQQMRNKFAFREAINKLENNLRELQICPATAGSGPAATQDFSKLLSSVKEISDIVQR

On to “Nck second SH3 domain (from UniProt P16333)”, for which the Kd is 350 µM.
